Measured values published in patent publication US20230331825A1.
One block for each substance: values may come before it.

Key:
[1] = biological target: SARS-CoV-2 spike (S) protein (SARS-CoV-2) (UniProt P0DTC2); assay: cell-based or functional assay
[2] = biological target: ACE2_Fc (UniProt Q9BYF1); assay: protein/peptide microarray, Anti-Hu IgG control alone, replicate 1, spot ACE2_Fc_0.17
[3] = biological target: Human IgG (human); assay: protein/peptide microarray, Anti-Hu IgG control alone, replicate 2, spot Human IgG
[4] = biological target: S1 (SARS-CoV-2) (UniProt P0DTC2); assay: protein/peptide microarray, Anti-Hu IgG control alone, replicate 2, spot S1_0.5
[5] = biological target: S1 (SARS-CoV-2) (UniProt P0DTC2); assay: protein/peptide microarray, Anti-Hu IgG control alone, replicate 1, spot S1_0.5
[6] = biological target: ACE2_Fc (UniProt Q9BYF1); assay: protein/peptide microarray, Anti-Hu IgG control alone, replicate 2, spot ACE2_Fc_0.5
[7] = biological target: Human IgG (human); assay: protein/peptide microarray, sample [..]00761 10 ug/mL, replicate 2, positive-control spot Human IgG (signal of the anti-human IgG detection)
[8] = biological target: Human IgG (human); assay: protein/peptide microarray, sample [..]00761 10 ug/mL, replicate 1, positive-control spot Human IgG (signal of the anti-human IgG detection)
[9] = biological target: ACE2_Fc (UniProt Q9BYF1); assay: protein/peptide microarray, sample [..]00761 10 ug/mL, replicate 1, positive-control spot ACE2_Fc_0.5 (signal of the anti-human IgG detection)
[10] = biological target: S1 (SARS-CoV-2) (UniProt P0DTC2); assay: protein/peptide microarray, Anti-Hu IgG control alone, replicate 1, spot S1_0.17
[11] = biological target: ACE2_Fc (UniProt Q9BYF1); assay: protein/peptide microarray, sample [..]00761 10 ug/mL, replicate 1, positive-control spot ACE2_Fc_0.17 (signal of the anti-human IgG detection)
[12] = biological target: ACE2_Fc (UniProt Q9BYF1); assay: protein/peptide microarray, Anti-Hu IgG control alone, replicate 1, spot ACE2_Fc_0.5
[13] = biological target: ACE2_Fc (UniProt Q9BYF1); assay: protein/peptide microarray, sample [..]00761 10 ug/mL, replicate 2, positive-control spot ACE2_Fc_0.17 (signal of the anti-human IgG detection)
[14] = biological target: ACE2_Fc (UniProt Q9BYF1); assay: protein/peptide microarray, sample [..]00761 10 ug/mL, replicate 2, positive-control spot ACE2_Fc_0.5 (signal of the anti-human IgG detection)
[15] = biological target: S1 (SARS-CoV-2) (UniProt P0DTC2); assay: protein/peptide microarray, Anti-Hu IgG control alone, replicate 2, spot S1_0.17
[16] = biological target: Human IgG (human); assay: protein/peptide microarray, Anti-Hu IgG control alone, replicate 1, spot Human IgG
[17] = biological target: ACE2_Fc (UniProt Q9BYF1); assay: protein/peptide microarray, Anti-Hu IgG control alone, replicate 2, spot ACE2_Fc_0.17
[18] = biological target: ACE2_Fc (microarray spots) (UniProt Q9BYF1); assay: CDI SARS-CoV-2 protein microarray, sample [..]00316 1 ug/mL, positive-control spot ACE2_Fc_0.17 read by the anti-human IgG secondary, replicate 1
[19] = biological target: ACE2_Fc (microarray spots) (UniProt Q9BYF1); assay: CDI SARS-CoV-2 protein microarray, sample [..]00347 1 ug/mL, positive-control spot ACE2_Fc_0.5 read by the anti-human IgG secondary, replicate 1
[20] = biological target: ACE2_Fc (microarray spots) (UniProt Q9BYF1); assay: CDI SARS-CoV-2 protein microarray, sample [..]00316 1 ug/mL, positive-control spot ACE2_Fc_0.5 read by the anti-human IgG secondary, replicate 2
[21] = biological target: Human IgG (microarray spot); assay: CDI SARS-CoV-2 protein microarray, sample [..]00316 1 ug/mL, positive-control spot Human IgG read by the anti-human IgG secondary, replicate 2
[22] = biological target: ACE2_Fc (microarray spots) (UniProt Q9BYF1); assay: CDI SARS-CoV-2 protein microarray, sample [..]00347 1 ug/mL, positive-control spot ACE2_Fc_0.17 read by the anti-human IgG secondary, replicate 2
[23] = biological target: ACE2_Fc (microarray spots) (UniProt Q9BYF1); assay: CDI SARS-CoV-2 protein microarray, sample [..]00347 1 ug/mL, positive-control spot ACE2_Fc_0.5 read by the anti-human IgG secondary, replicate 2
[24] = biological target: Human IgG (microarray spot); assay: CDI SARS-CoV-2 protein microarray, sample [..]00316 1 ug/mL, positive-control spot Human IgG read by the anti-human IgG secondary, replicate 1
[25] = biological target: ACE2_Fc (microarray spots) (UniProt Q9BYF1); assay: CDI SARS-CoV-2 protein microarray, sample [..]00347 1 ug/mL, positive-control spot ACE2_Fc_0.17 read by the anti-human IgG secondary, replicate 1
[26] = biological target: Human IgG (microarray spot); assay: CDI SARS-CoV-2 protein microarray, sample [..]00347 1 ug/mL, positive-control spot Human IgG read by the anti-human IgG secondary, replicate 1
[27] = biological target: ACE2_Fc (microarray spots) (UniProt Q9BYF1); assay: CDI SARS-CoV-2 protein microarray, sample [..]00316 1 ug/mL, positive-control spot ACE2_Fc_0.5 read by the anti-human IgG secondary, replicate 1
[28] = biological target: ACE2_Fc (microarray spots) (UniProt Q9BYF1); assay: CDI SARS-CoV-2 protein microarray, sample [..]00316 1 ug/mL, positive-control spot ACE2_Fc_0.17 read by the anti-human IgG secondary, replicate 2
[29] = biological target: Human IgG (microarray spot); assay: CDI SARS-CoV-2 protein microarray, sample [..]00347 1 ug/mL, positive-control spot Human IgG read by the anti-human IgG secondary, replicate 2

Substance: REGN10933 (antibody)
IC50, SARS-CoV-2 pseudovirus neutralization assay [1]: 84.1 ng/mL

F635 [2]: 65500
Z-Score [2]: 9.27
F635 [3]: 65500
Z-Score [3]: 9.27
F635 [4]: 1230
Z-Score [4]: 0.06
F635 [5]: 1560
Z-Score [5]: 0.1
F635 [6]: 65500
Z-Score [6]: 9.27
F635 [7]: 65500
Z-Score [7]: 7.67
F635 [8]: 65500
Z-Score [8]: 7.28
F635 [9]: 65500
Z-Score [9]: 7.28
F635 [10]: 1410
Z-Score [10]: 0.08
F635 [11]: 65500
Z-Score [11]: 7.28
F635 [12]: 65500
Z-Score [12]: 9.27
F635 [13]: 65500
Z-Score [13]: 7.67
F635 [14]: 65500
Z-Score [14]: 7.67
F635 [15]: 753
Z-Score [15]: -0.01
F635 [16]: 65500
Z-Score [16]: 9.27
F635 [17]: 65500
Z-Score [17]: 9.27
Substance: Anti-Hu IgG (Control) (antibody)

F532 [18]: 198
F635 [18]: 65500
Z-Score [18]: 7.52
F532 [19]: 219
F635 [19]: 65500
Z-Score [19]: 8.93
F532 [20]: 167
F635 [20]: 65500
Z-Score [20]: 7.96
F532 [21]: 164
F635 [21]: 65500
Z-Score [21]: 7.97
F532 [22]: 138
F635 [22]: 65500
Z-Score [22]: 8.89
F532 [23]: 160
F635 [23]: 65500
Z-Score [23]: 8.89
F532 [24]: 212
F635 [24]: 65500
Z-Score [24]: 7.52
F532 [25]: 192
F635 [25]: 65500
Z-Score [25]: 8.93
F532 [26]: 197
F635 [26]: 65500
Z-Score [26]: 8.93
F532 [27]: 234
F635 [27]: 65500
Z-Score [27]: 7.52
F532 [28]: 151
F635 [28]: 60200
Z-Score [28]: 7.32
F532 [29]: 179
F635 [29]: 65500
Z-Score [29]: 8.89
Substance: secondary antibody (Anti-Human IgG)
